Experimental data taken from the supplement of paper PMC9112550, “Optimization of the antimicrobial peptide Bac7 by deep mutational scanning” (BMC Biology, 2022).

tested on: Escherichia coli TOP10; test: shrunken log2 fold change of peptide-encoding DNA abundance (4.5 h post-induction vs induction); higher = less antimicrobial activity (less host growth inhibition); settings: time post-induction: 4.5 h; library: site-saturation at positions 5, 18, 19, 20
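Note: peptides expressed intracellularly from a pBAD plasmid library in pooled LB shake-flask culture, induced with 0.3% L-arabinose, DNA abundance read by NGS, three biological replicates, DESeq2 with apeglm shrinkage.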

In order of rising “shrunken log2 fold change” value:
1. RRIRCRPPRLPRPRPRPFIHPRP  -1.43
2. RRIRCRPPRLPRPRPRPCYYPRP  -1.31
3. RRIRCRPPRLPRPRPRPFHLPRP  -1.11
4. RRIRCRPPRLPRPRPRPFQLPRP  -1.02
5. RRIRCRPPRLPRPRPRPFSEPRP  -0.929
6. RRIRCRPPRLPRPRPRPCKLPRP  -0.896
7. RRIRCRPPRLPRPRPRPFNEPRP  -0.799
8. RRIRCRPPRLPRPRPRPFHDPRP  -0.727
9. RRIRCRPPRLPRPRPRPFPYPRP  -0.645
10. RRIRCRPPRLPRPRPRPFYCPRP  -0.645
11. RRIRCRPPRLPRPRPRPFTKPRP  -0.628
12. RRIRCRPPRLPRPRPRPEFIPRP  -0.551
13. RRIRCRPPRLPRPRPRPFSFPRP  -0.513
14. RRIRCRPPRLPRPRPRPFCDPRP  -0.501
15. RRIRCRPPRLPRPRPRPDCLPRP  -0.494
16. RRIRCRPPRLPRPRPRPCWNPRP  -0.49
17. RRIRCRPPRLPRPRPRPCFIPRP  -0.488
18. RRIRCRPPRLPRPRPRPGQYPRP  -0.479
19. RRIRCRPPRLPRPRPRPDYWPRP  -0.437
20. RRIRCRPPRLPRPRPRPGFHPRP  -0.435
21. RRIRCRPPRLPRPRPRPCPLPRP  -0.433
22. RRIRCRPPRLPRPRPRPFNQPRP  -0.421
23. RRIRCRPPRLPRPRPRPCVYPRP  -0.411
24. RRIRCRPPRLPRPRPRPFMPPRP  -0.402
25. RRIRCRPPRLPRPRPRPCIFPRP  -0.396
26. RRIRCRPPRLPRPRPRPDYEPRP  -0.373
27. RRIRCRPPRLPRPRPRPAIVPRP  -0.37
28. RRIRCRPPRLPRPRPRPDSPPRP  -0.353
29. RRIRCRPPRLPRPRPRPCQVPRP  -0.342
30. RRIRCRPPRLPRPRPRPDRLPRP  -0.335
31. RRIRCRPPRLPRPRPRPFSRPRP  -0.332
32. RRIRCRPPRLPRPRPRPDIPPRP  -0.331
33. RRIRCRPPRLPRPRPRPEVHPRP  -0.328
34. RRIRCRPPRLPRPRPRPGKYPRP  -0.316
35. RRIRCRPPRLPRPRPRPFANPRP  -0.29
36. RRIRCRPPRLPRPRPRPESIPRP  -0.263
37. RRIRCRPPRLPRPRPRPAVVPRP  -0.243
38. RRIRCRPPRLPRPRPRPEYNPRP  -0.243
39. RRIRCRPPRLPRPRPRPFVCPRP  -0.242
40. RRIRCRPPRLPRPRPRPFSLPRP  -0.239
41. RRIRCRPPRLPRPRPRPCCTPRP  -0.238
42. RRIRCRPPRLPRPRPRPDCTPRP  -0.232
43. RRIRCRPPRLPRPRPRPCNPPRP  -0.23
44. RRIRCRPPRLPRPRPRPFTCPRP  -0.223
45. RRIRCRPPRLPRPRPRPEHIPRP  -0.218
46. RRIRCRPPRLPRPRPRPCALPRP  -0.213
47. RRIRCRPPRLPRPRPRPDHYPRP  -0.211
48. RRIRCRPPRLPRPRPRPCKWPRP  -0.208
49. RRIRCRPPRLPRPRPRPCIGPRP  -0.204
50. RRIRCRPPRLPRPRPRPEHMPRP  -0.201
51. RRIRCRPPRLPRPRPRPGNIPRP  -0.198
52. RRIRCRPPRLPRPRPRPAWIPRP  -0.197
53. RRIRCRPPRLPRPRPRPAYRPRP  -0.194
54. RRIRCRPPRLPRPRPRPCKNPRP  -0.194
55. RRIRCRPPRLPRPRPRPCGRPRP  -0.184
56. RRIRCRPPRLPRPRPRPDYSPRP  -0.179
57. RRIRCRPPRLPRPRPRPGEFPRP  -0.179
58. RRIRCRPPRLPRPRPRPCNDPRP  -0.173
59. RRIRCRPPRLPRPRPRPDCGPRP  -0.169
60. RRIRCRPPRLPRPRPRPDEFPRP  -0.169
61. RRIRCRPPRLPRPRPRPCFAPRP  -0.162
62. RRIRCRPPRLPRPRPRPERYPRP  -0.153
63. RRIRCRPPRLPRPRPRPGQMPRP  -0.147
64. RRIRCRPPRLPRPRPRPCKDPRP  -0.142
65. RRIRCRPPRLPRPRPRPCRDPRP  -0.142
66. RRIRCRPPRLPRPRPRPCPNPRP  -0.14
67. RRIRCRPPRLPRPRPRPGLHPRP  -0.131
68. RRIRCRPPRLPRPRPRPCLYPRP  -0.117
69. RRIRCRPPRLPRPRPRPCTLPRP  -0.107
70. RRIRCRPPRLPRPRPRPAKCPRP  -0.101
71. RRIRCRPPRLPRPRPRPEYCPRP  -0.0902
72. RRIRCRPPRLPRPRPRPDNGPRP  -0.0856
73. RRIRCRPPRLPRPRPRPGGNPRP  -0.0575
74. RRIRCRPPRLPRPRPRPDKAPRP  -0.0544
75. RRIRCRPPRLPRPRPRPEWHPRP  -0.0462
76. RRIRCRPPRLPRPRPRPGMIPRP  -0.0447
77. RRIRCRPPRLPRPRPRPCDSPRP  -0.042
78. RRIRCRPPRLPRPRPRPEWQPRP  -0.0271
79. RRIRCRPPRLPRPRPRPGKGPRP  -0.025
80. RRIRCRPPRLPRPRPRPFWEPRP  -0.0195
81. RRIRCRPPRLPRPRPRPCSMPRP  -0.0191
82. RRIRCRPPRLPRPRPRPEKQPRP  -0.0123
83. RRIRCRPPRLPRPRPRPGDSPRP  -0.0113
84. RRIRCRPPRLPRPRPRPDGIPRP  -0.0101
85. RRIRCRPPRLPRPRPRPETDPRP  -0.00874
86. RRIRCRPPRLPRPRPRPDGHPRP  -0.00753
87. RRIRCRPPRLPRPRPRPDMTPRP  -0.00325
88. RRIRCRPPRLPRPRPRPDVVPRP  -0.00174
89. RRIRCRPPRLPRPRPRPCPMPRP  -8.18e-06
90. RRIRCRPPRLPRPRPRPGLIPRP  4.01e-05
91. RRIRCRPPRLPRPRPRPEDSPRP  0.00322
92. RRIRCRPPRLPRPRPRPDHCPRP  0.00334
93. RRIRCRPPRLPRPRPRPAKNPRP  0.00465
94. RRIRCRPPRLPRPRPRPCHCPRP  0.00562
95. RRIRCRPPRLPRPRPRPDEVPRP  0.00585
96. RRIRCRPPRLPRPRPRPGHPPRP  0.00689
97. RRIRCRPPRLPRPRPRPCPRPRP  0.00856
98. RRIRCRPPRLPRPRPRPFQKPRP  0.0129
99. RRIRCRPPRLPRPRPRPEVCPRP  0.0143
100. RRIRCRPPRLPRPRPRPDQKPRP  0.0192
101. RRIRCRPPRLPRPRPRPDHVPRP  0.021
102. RRIRCRPPRLPRPRPRPAWEPRP  0.0219
103. RRIRCRPPRLPRPRPRPESVPRP  0.025
104. RRIRCRPPRLPRPRPRPCGVPRP  0.0257
105. RRIRCRPPRLPRPRPRPFESPRP  0.0262
106. RRIRCRPPRLPRPRPRPEEMPRP  0.028
107. RRIRCRPPRLPRPRPRPAHDPRP  0.031
108. RRIRCRPPRLPRPRPRPDFFPRP  0.035
109. RRIRCRPPRLPRPRPRPCAGPRP  0.039
110. RRIRCRPPRLPRPRPRPCASPRP  0.0454
111. RRIRCRPPRLPRPRPRPFDYPRP  0.0472
112. RRIRCRPPRLPRPRPRPEMGPRP  0.0517
113. RRIRCRPPRLPRPRPRPCPTPRP  0.0528
114. RRIRCRPPRLPRPRPRPDWSPRP  0.0534
115. RRIRCRPPRLPRPRPRPCCEPRP  0.0666
116. RRIRCRPPRLPRPRPRPAVMPRP  0.067
117. RRIRCRPPRLPRPRPRPDSRPRP  0.0735
118. RRIRCRPPRLPRPRPRPGQVPRP  0.0846
119. RRIRCRPPRLPRPRPRPGRHPRP  0.105
120. RRIRCRPPRLPRPRPRPCLDPRP  0.11
121. RRIRCRPPRLPRPRPRPAMEPRP  0.111
122. RRIRCRPPRLPRPRPRPDQSPRP  0.112
123. RRIRCRPPRLPRPRPRPEDLPRP  0.117
124. RRIRCRPPRLPRPRPRPGPQPRP  0.117
125. RRIRCRPPRLPRPRPRPECMPRP  0.119
126. RRIRCRPPRLPRPRPRPEMIPRP  0.12
127. RRIRCRPPRLPRPRPRPANRPRP  0.127
128. RRIRCRPPRLPRPRPRPFPKPRP  0.131
129. RRIRCRPPRLPRPRPRPGFPPRP  0.134
130. RRIRCRPPRLPRPRPRPGAFPRP  0.138
131. RRIRCRPPRLPRPRPRPEVLPRP  0.149
132. RRIRCRPPRLPRPRPRPEFWPRP  0.163
133. RRIRCRPPRLPRPRPRPGMEPRP  0.183
134. RRIRCRPPRLPRPRPRPESKPRP  0.198
135. RRIRCRPPRLPRPRPRPGMWPRP  0.211
136. RRIRCRPPRLPRPRPRPECSPRP  0.231
137. RRIRCRPPRLPRPRPRPARSPRP  0.261
138. RRIRCRPPRLPRPRPRPDHPPRP  0.264
139. RRIRCRPPRLPRPRPRPEFPPRP  0.278
140. RRIRCRPPRLPRPRPRPEVSPRP  0.282
141. RRIRCRPPRLPRPRPRPALQPRP  0.313
142. RRIRCRPPRLPRPRPRPAMHPRP  0.354
143. RRIRCRPPRLPRPRPRPGARPRP  0.394
144. RRIRCRPPRLPRPRPRPGEMPRP  0.438
145. RRIRCRPPRLPRPRPRPGASPRP  0.519
146. RRIRCRPPRLPRPRPRPEAMPRP  0.536
147. RRIRCRPPRLPRPRPRPGGEPRP  0.538
148. RRIRCRPPRLPRPRPRPAQNPRP  0.586
149. RRIRCRPPRLPRPRPRPGPGPRP  0.709
150. RRIRCRPPRLPRPRPRPEGCPRP  3.02
